Results on 38 variants are retold here after the RNAGym collection of RNA variant scans (doi:10.7554/elife.80360).

To fix the notation:
B1: Hairpin Ribozyme (parent)
chain: GUCCUCUUUCACGUGCGCGUGAAAGAGAGAAGUGAACCAGAGAAACACACGUUGUGGUAUAUUACCUGGUA

Variants of B1 are the subject of the series. In words: self-cleavage, relative activity (ratio to wild type); higher = more cleavage; co-transcriptional.
Take GUCCUCUUUCACGUGCGCGUGAAAGAGAGAAGUGAACAAGAGAAACACACGUAGUGGUAUAUUACCUGGUA [C38A U53A]: the self-cleavage worked out at 0.215. Then GUCCUCUUUCACGUGCGCGUGAAAGAGAGAAGUGAACAAGAGAAACACACGUCGUGGUAUAUUACCUGGUA [C38A U53C], with 0.228. Then GUCCUCUUUCACGUGCGCGUGAAAGAGAGAAGUGAACGAGAGAAACACACGUUGUGGUAUAUUACCAGGUA [C38G U67A], with 0.224. Take GUCCUCUUUCACGUGCGCGUGAAAGAGAGAAGUGAACAAGACAAACACACGUUGUGGUAUAUUACCUGGUA [C38A G42C]: the self-cleavage is 0.0881.

Take GUCCUCUUUCACGUGCGCGUGAAAGAGAGAAGUGAACAAGAUAAACACACGUUGUGGUAUAUUACCUGGUA [C38A G42U]: the self-cleavage amounted to 0.112. With GUCCUCUUUCACGUGCGCGUGAAAGAGAGAAGUGAACGAGAGAAACACACGUUGUGGUAUAUUACCUCGUA [C38G G68C], the self-cleavage amounted to 0.591. The result for GUCCUCUUUCACGUGCGCGUGAAAGAGAGAAGUGAACGAGAGAAACACACGUUGUGUUAUAUUACCUGGUA [C38G G57U] reads 0.116. Take GUCCUCUUUCACGUGCGCGUGAAAGAGAGAAGUGAACGCGAGAAACACACGUUGUGGUAUAUUACCUGGUA [C38G A39C]: the self-cleavage came to 0.146. Turning to GUCCUCUUUCACGUGCGCGUGAAAGAGAGAAGUGAACGGGAGAAACACACGUUGUGGUAUAUUACCUGGUA [C38G A39G], the self-cleavage was found to be 0.117.

For GUCCUCUUUCACGUGCGCGUGAAAGAGAGAAGUGAACGAGAGAAACACACGUUGUGGUAUGUUACCUGGUA [C38G A61G], the self-cleavage was determined as 0.166. Then GUCCUCUUUCACGUGCGCGUGAAAGAGAGAAGUGAACGAGAGAAACACACGUUGUGGUAUUUUACCUGGUA [C38G A61U], with 0.227; and GUCCUCUUUCACGUGCGCGUGAAAGAGAGAAGUGAACAAGAGAAACACACGUUGUGGUAUAUUACCGGGUA [C38A U67G], with 0.137. The result for GUCCUCUUUCACGUGCGCGUGAAAGAGAGAAGUGAACAAGAGAAACACACGUUGUGGUAUAUUACCAGGUA [C38A U67A] reads 0.124; that for GUCCUCUUUCACGUGCGCGUGAAAGAGAGAAGUGAACGAGAGAAACACACCUUGUGGUAUAUUACCUGGUA [C38G G51C], 0.147. Then GUCCUCUUUCACGUGCGCGUGAAAGAGAGAAGUGAACGAGAGAAACACACGUUGUGGUAUAUUACCUGGUU [C38G A71U], with 0.138; and GUCCUCUUUCACGUGCGCGUGAAAGAGAGAAGUGAACGAGAGAAACACACGUUGUGGUAUAUUACCUGGUG [C38G A71G], with 0.172; and GUCCUCUUUCACGUGCGCGUGAAAGAGAGAAGUGAACUAGAGAAACUCACGUUGUGGUAUAUUACCUGGUA [C38U A47U], with 0.151. Regarding GUCCUCUUUCACGUGCGCGUGAAAGAGAGAAGUGAACAAGAGAGACACACGUUGUGGUAUAUUACCUGGUA [C38A A44G], the self-cleavage stood at 0.144. Then GUCCUCUUUCACGUGCGCGUGAAAGAGAGAAGUGAACAAGAGAUACACACGUUGUGGUAUAUUACCUGGUA [C38A A44U], with 0.118; and GUCCUCUUUCACGUGCGCGUGAAAGAGAGAAGUGAACUUGAGAAACACACGUUGUGGUAUAUUACCUGGUA [C38U A39U], with 0.185; and GUCCUCUUUCACGUGCGCGUGAAAGAGAGAAGUGAACUGGAGAAACACACGUUGUGGUAUAUUACCUGGUA [C38U A39G], with 0.3. Then GUCCUCUUUCACGUGCGCGUGAAAGAGAGAAGUGAACAAGAGAAACCCACGUUGUGGUAUAUUACCUGGUA [C38A A47C], with 0.146. With GUCCUCUUUCACGUGCGCGUGAAAGAGAGAAGUGAACAAGAGAAACUCACGUUGUGGUAUAUUACCUGGUA [C38A A47U], the self-cleavage is 0.0951. Then GUCCUCUUUCACGUGCGCGUGAAAGAGAGAAGUGAACAAGAGAAACACACGUUGUGGUAUAUUACAUGGUA [C38A C66A], with 0.216; and GUCCUCUUUCACGUGCGCGUGAAAGAGAGAAGUGAACAAGAGAAACACACGUUGUGGUAUAUUACUUGGUA [C38A C66U], with 0.0169; and GUCCUCUUUCACGUGCGCGUGAAAGAGAGAAGUGAACUAGAGCAACACACGUUGUGGUAUAUUACCUGGUA [C38U A43C], with 0.0947. The result for GUCCUCUUUCACGUGCGCGUGAAAGAGAGAAGUGAACAAGAGAAACACACGUUGUGGUAUAUUACCUGGGA [C38A U70G] reads 0.141; that for GUCCUCUUUCACGUGCGCGUGAAAGAGAGAAGUGAACAAGAGAAACACACGUUGUGGUAUAUUACCUGGCA [C38A U70C], 0.115; that for GUCCUCUUUCACGUGCGCGUGAAAGAGAGAAGUGAACUAGAGAAUCACACGUUGUGGUAUAUUACCUGGUA [C38U A45U], 0.113. Then GUCCUCUUUCACGUGCGCGUGAAAGAGAGAAGUGAACGAGAGAAACACACGUUGUGGUCUAUUACCUGGUA [C38G A59C], with 0.12; and GUCCUCUUUCACGUGCGCGUGAAAGAGAGAAGUGAACAAGAGAAACACACGUUGUGGUAUACUACCUGGUA [C38A U62C], with 0.0746; and GUCCUCUUUCACGUGCGCGUGAAAGAGAGAAGUGAACAAGAGAAACACACCUUGUGGUAUAUUACCUGGUA [C38A G51C], with 0.223. Take GUCCUCUUUCACGUGCGCGUGAAAGAGAGAAGUGAACAAGAGAAAUACACGUUGUGGUAUAUUACCUGGUA [C38A C46U]: the self-cleavage was found to be 0.187. Then GUCCUCUUUCACGUGCGCGUGAAAGAGAGAAGUGAACGACAGAAACACACGUUGUGGUAUAUUACCUGGUA [C38G G40C], with 0.0961. As to GUCCUCUUUCACGUGCGCGUGAAAGAGAGAAGUGAACAAGAGAAACACACGUUGUGGUAUCUUACCUGGUA [C38A A61C], the self-cleavage amounted to 0.174. The result for GUCCUCUUUCACGUGCGCGUGAAAGAGAGAAGUGAACAAGAGAAACACACGUUGUGGUAUGUUACCUGGUA [C38A A61G] reads 0.258; that for GUCCUCUUUCACGUGCGCGUGAAAGAGAGAAGUGAAUCAGAGAAACACACGAUGUGGUAUAUUACCUGGUA [C37U U52A], 0.672. For the variant GUCCUCUUUCACGUGCGCGUGAAAGAGAGAAGUGAACAAGAGAAACACACGUUGUGGUAGAUUACCUGGUA [C38A U60G], the self-cleavage amounted to 0.218.
